# In paper PMC4277767 (ACS Synthetic Biology, 2014):
# Target: LexA-CRY2 (CRY2 fused to the LexA DNA binding domain) (Arabidopsis, UniProt Q96524 1-612)
# Test: two-hybrid
# Chain of LexA-CRY2 (CRY2 fused to the LexA DNA binding domain) (Q96524 whole entry, the tested form may be a part): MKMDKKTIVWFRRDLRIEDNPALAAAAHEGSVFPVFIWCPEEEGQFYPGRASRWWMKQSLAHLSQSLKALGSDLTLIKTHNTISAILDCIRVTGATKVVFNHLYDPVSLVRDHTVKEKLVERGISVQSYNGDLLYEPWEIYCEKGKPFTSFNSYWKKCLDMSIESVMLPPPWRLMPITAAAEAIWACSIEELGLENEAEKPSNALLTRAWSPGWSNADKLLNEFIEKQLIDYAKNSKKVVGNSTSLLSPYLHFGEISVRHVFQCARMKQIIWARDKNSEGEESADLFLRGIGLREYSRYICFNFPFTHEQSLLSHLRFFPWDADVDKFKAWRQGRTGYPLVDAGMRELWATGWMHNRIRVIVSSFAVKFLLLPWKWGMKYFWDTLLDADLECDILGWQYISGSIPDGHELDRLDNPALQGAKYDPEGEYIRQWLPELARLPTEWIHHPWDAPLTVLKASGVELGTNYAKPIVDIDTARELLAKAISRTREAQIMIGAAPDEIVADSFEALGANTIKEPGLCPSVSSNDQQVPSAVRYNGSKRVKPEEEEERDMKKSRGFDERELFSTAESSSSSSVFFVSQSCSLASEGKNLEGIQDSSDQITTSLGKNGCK
binder,measurement,value
"VP16-CIB1 (CIB1 fused to a VP16 activation domain) (natural protein, Arabidopsis, UniProt Q8GY61 1-335, looked up) MNGAIGGDLLLNFPDMSVLERQRAHLKYLNPTFDSPLAGFFADSSMITGGEMDSYLSTAGLNLPMMYGETTVEGDSRLSISPETTLGTGNFKKRKFDTETKDCNEKKKKMTMNRDDLVEEGEEEKSKITEQNNGSTKSIKKMKHKAKKEENNFSNDSSKVTKELEKTDYIHVRARRGQATDSHSIAERVRREKISERMKFLQDLVPGCDKITGKAGMLDEIINYVQSLQRQIEFLSMKLAIVNPRPDFDMDDIFAKEVASTPMTVVPSPEMVLSGYSHEMVHSGYSSEMVNSGYLHVNPMQQVNTSSDPLSCFNNGEAPSMWDSHVQNLYGNLGV",fold stimulation of reporter activity by blue light over dark,~100 fold
